In patent US20230407373A1 (priority 2020, published 2023):

System: SARS-CoV-2 gRNA and sgRNAs
Type: binding
Details: for target (unweighted spectral count in RNP capture): Probe II capture, LC-MS/MS LFQ; for background (unweighted spectral count in control): no-probe control pull-down, used as background for Probe II

B1: NUFIP2 (protein, UniProt Q7Z417 1-695, looked up)
FMR1-interacting protein …: MEEKPGQPQPQHHHSHHHPHHHPQQQQQQPHHHHHYYFYNHSHNHHHHHHHQQPHQYLQHGAEGSPKAQPKPLKHEQKHTLQQHQETPKKKTGYGELNGNAGEREISLKNLSSDEATNPISRVLNGNQQVVDTSLKQTVKANTFGKAGIKTKNFIQKNSMDKKNGKSYENKSGENQSVDKSDTIPIPNGVVTNNSGYITNGYMGKGADNDGSGSESGYTTPKKRKARRNSAKGCENLNIVQDKIMQQETSVPTLKQGLETFKPDYSEQKGNRVDGSKPIWKYETGPGGTSRGKPAVGDMLRKSSDSKPGVSSKKFDDRPKGKHASAVASKEDSWTLFKPPPVFPVDNSSAKIVPKISYASKVKENLNKTIQNSSVSPTSSSSSSSSTGETQTQSSSRLSQVPMSALKSVTSANFSNGPVLAGTDGNVYPPGGQPLLTTAANTLTPISSGTDSVLQDMSLTSAAVEQIKTSLFIYPSNMQTMLLSTAQVDLPSQTDQQNLGDIFQNQWGLSFINEPSAGPETVTGKSSEHKVMEVTFQGEYPATLVSQGAEIIPSGTEHPVFPKAYELEKRTSPQVLGSILKSGTTSESGALSLEPSHIGDLQKADTSSQGALVFLSKDYEIESQNPLASPTNTLLGSAKEQRYQRGLERNDSWGSFDLRAAIVYHTKEMESIWNLQKQDPKRIITYNEAMDSPDQ
[…]
  target (unweighted spectral count in RNP capture): 10
  background (unweighted spectral count in control): 1

B2: DOX3X (protein, UniProt O00571 2-662, looked up)
ATP-dependent RNA helicase …: SHVAVENALGLDQQFAGLDLNSSDNQSGGSTASKGRYIPPHLRNREATKGFYDKDSSGWSSSKDKDAYSSFGSRSDSRGKSSFFSDRGSGSRGRFDDRGRSDYDGIGSRGDRSGFGKFERGGNSRWCDKSDEDDWSKPLPPSERLEQELFSGGNTGINFEKYDDIPVEATGNNCPPHIESFSDVEMGEIIMGNIELTRYTRPTPVQKHAIPIIKEKRDLMACAQTGSGKTAAFLLPILSQIYSDGPGEALRAMKENGRYGRRKQYPISLVLAPTRELAVQIYEEARKFSYRSRVRPCVVYGGADIGQQIRDLERGCHLLVATPGRLVDMMERGKIGLDFCKYLVLDEADRMLDMGFEPQIRRIVEQDTMPPKGVRHTMMFSATFPKEIQMLARDFLDEYIFLAVGRVGSTSENITQKVVWVEESDKRSFLLDLLNATGKDSLTLVFVETKKGADSLEDFLYHEGYACTSIHGDRSQRDREEALHQFRSGKSPILVATAVAARGLDISNVKHVINFDLPSDIEEYVHRIGRTGRVGNLGLATSFFNERNINITKDLLDLLVEAKQEVPSWLENMAYEHHYKGSSRGRSKSSRFSGGFGARDYRQSSGASSSSFSSSRASSSRSGGGGHGSSRGFGGGGYGGFYNSDGYGGNYNSQGVDWWGN
[…]
  target (unweighted spectral count in RNP capture): 49
  background (unweighted spectral count in control): 1

B3: CAPRIN1 (protein, UniProt Q14444 2-709, looked up)
Caprin-1: PSATSHSGSGSKSSGPPPPSGSSGSEAAAGAGAAAPASQHPATGTGAVQTEAMKQILGVIDKKLRNLEKKKGKLDDYQERMNKGERLNQDQLDAVSKYQEVTNNLEFAKELQRSFMALSQDIQKTIKKTARREQLMREEAEQKRLKTVLELQYVLDKLGDDEVRTDLKQGLNGVPILSEEELSLLDEFYKLVDPERDMSLRLNEQYEHASIHLWDLLEGKEKPVCGTTYKVLKEIVERVFQSNYFDSTHNHQNGLCEEEEAASAPAVEDQVPEAEPEPAEEYTEQSEVESTEYVNRQFMAETQFTSGEKEQVDEWTVETVEVVNSLQQQPQAASPSVPEPHSLTPVAQADPLVRRQRVQDLMAQMQGPYNFIQDSMLDFENQTLDPAIVSAQPMNPTQNMDMPQLVCPPVHSESRLAQPNQVPVQPEATQVPLVSSTSEGYTASQPLYQPSHATEQRPQKEPIDQIQATISLNTDQTTASSSLPAASQPQVFQAGTSKPLHSSGINVNAAPFQSMQTVFNMNAPVPPVNEPETLKQQNQYQASYNQSFSSQPHQVEQTELQQEQLQTVVGTYHGSPDQSHQVTGNHQQPPQQNTGFPRSNQPYYNSRGVSRGGSRGARGLMNGYRGPANGFRGGYDGYRPSFSNTPNSGYTQSQFSAPRDYSGYQRDGYQQNFKRGSGQSGPRGAPRGRGGPPRPNRGMPQMNTQQVN
[…]
  target (unweighted spectral count in RNP capture): 10
  background (unweighted spectral count in control): 1

B4: FAM120C (protein, UniProt Q9NX05 1-1096, looked up)
Constitutive coactivator of …: MGVQGFQEFLEKRCPGAVVPVDLLKLARTVSRQQQQQHLHRQLPPTAALAPGAPRAARGSVPLQPPLPPAALGAYSGGAGPTRHHHPAHHFHHHGQAQPGLHPPLPPPPPPQLPGARVLVDAGSALPRLYGGYQTDWVCGGQWNAMLGYLSALCQACAYPGGDGLELVVMFPGGLGKDRLAEWGRRCQAERQTAQLIVGHVGNKGTPPPRAWFLPPACLSHCVRLALIRFRVKVFQSLEDHHLEVVAFFRENGFHGLLAHDSEYALYNIPSYYSSHALKLSWNGKNLTTNQFLMQEVAKQLGLKRMNFPIFAALLGNHILPDEDLAAFHWSLLGPEHPLASLKVRAHQLVLPPCDVVIKAVSEYVSSIKDPSNLDVVGKDVFKQSQSRTEDKIERFKKAVEYYSVTTKLSSLPVGPSFLGFRNNRLGNPPLPRNQVGTISAGKPMFSHQVPQKVKYPPPFPVGPNSSLLFSSHALGESHAFSEDPMLQNSPFANWAVSYDSSASQFPNYLPSKASPPLGPDSSHSSSSDGDEPNGASSDHITEAFHHQPEWGNPNRDRGSWAQPVDTGVSEASLGDGEPHIPSLLSMSTRNHMDITIPPLPPVAPEVLRVAEHRHRRGLMYPYIYHVLTKGEIKIPVCIEDECNMELPPAALLFRSARQYVYGVLFSLAETQRKMERLAMRRRLPVEVPSVILKEWSAYKGKSPQTPELVSALTFREWTCPNLKKLWLGKAVEDKNRRMRAFLACMKSDTPSMLNPANVPTHLLLMCCVLRYMVQWPGGRILHRHELDTFLAQAVSTQLYEPDRLQELKIEKLDARGIQLAALFMSGVDTALFANDACGQPVPWEHCCPWIYFDGKLFQSKLIKAGRERVSLVELCDGQADLATKVEKMRQSILEGVNMNHPPPSALLPSPTFVPPMVPSLYPVSLYSRAMGSMPLPPQGRSRGFAGLHPIPPQGGKLEIAGMVVGQWAGSRSSRGRGSFGMQVVSVGGPGKGHGKEQTGRGSKGHKKGNKQGSSDGVSKSLELHQGRSRSQVNGNSGALIKEEKSDHRLPAPSQCALSRDSNECNNGNRYLPMNNREKNHLQEQKLETVAQRKED
[…]
  target (unweighted spectral count in RNP capture): 14
  background (unweighted spectral count in control): 1

B5: BICC1 (protein, UniProt Q9H694 1-974, looked up)
Protein bicaudal C homolog 1: MAAQGEPGYLAAQSDPGSNSERSTDSPVPGSEDDLVAGATLHSPEWSEERFRVDRKKLEAMLQAAAEGKGRSGEDFFQKIMEETNTQIAWPSKLKIGAKSKKDPHIKVSGKKEDVKEAKEMIMSVLDTKSNRVTLKMDVSHTEHSHVIGKGGNNIKKVMEETGCHIHFPDSNRNNQAEKSNQVSIAGQPAGVESARVRIRELLPLVLMFELPIAGILQPVPDPNSPSIQHISQTYNISVSFKQRSRMYGATVIVRGSQNNTSAVKEGTAMLLEHLAGSLASAIPVSTQLDIAAQHHLFMMGRNGSNIKHIMQRTGAQIHFPDPSNPQKKSTVYLQGTIESVCLARQYLMGCLPLVLMFDMKEEIEVDPQFIAQLMEQLDVFISIKPKPKQPSKSVIVKSVERNALNMYEARKCLLGLESSGVTIATSPSPASCPAGLACPSLDILASAGLGLTGLGLLGPTTLSLNTSTTPNSLLNALNSSVSPLQSPSSGTPSPTLWAPPLANTSSATGFSAIPHLMIPSTAQATLTNILLSGVPTYGHTAPSPPPGLTPVDVHINSMQTEGKKISAALNGHAQSPDIKYGAISTSSLGEKVLSANHGDPSIQTSGSEQTSPKSSPTEGCNDAFVEVGMPRSPSHSGNAGDLKQMMCPSKVSCAKRQTVELLQGTKNSHLHSTDRLLSDPELSATESPLADKKAPGSERAAERAAAAQQNSERAHLAPRSSYVNMQAFDYEQKKLLATKAMLKKPVVTEVRTPTNTWSGLGFSKSMPAETIKELRRANHVSYKPTMTTTYEGSSMSLSRSNSREHLGGGSESDNWRDRNGIGPGSHSEFAASIGSPKRKQNKSTEHYLSSSNYMDCISSLTGSNGCNLNSSFKGSDLPELFSKLGLGKYTDVFQQQEIDLQTFLTLTDQDLKELGITTFGARRKMLLAISELNKNRRKLFESPNARTSFLEGGASGRLPRQYHSDIASVSGRW
[…]
  target (unweighted spectral count in RNP capture): 11
  background (unweighted spectral count in control): 1

B6: CRIP2 (protein, UniProt P52943 1-208, looked up)
Cysteine-rich protein 2: MASKCPKCDKTVYFAEKVSSLGKDWHKFCLKCERCSKTLTPGGHAEHDGKPFCHKPCYATLFGPKGVNIGGAGSYIYEKPLAEGPQVTGPIEVPAARAEERKASGPPKGPSRASSVTTFTGEPNTCPRCSKKVYFAEKVTSLGKDWHRPCLRCERCGKTLTPGGHAEHDGQPYCHKPCYGILFGPKGVNTGAVGSYIYDRDPEGKVQP
[…], LC-MS/MS label-free quantification, probe pool not given
  target (unweighted spectral count of the protein in the RNP capture experiment): 6
Protein background of the control (e.g. no-probe) experiment, […]
  back-ground (unweighted spectral count of the protein in the control experiment): 1

B7: HRNPR (protein, UniProt O43390 2-633, looked up)
Heterogeneous nuclear …: ANQVNGNAVQLKEEEEPMDTSSVTHTEHYKTLIEAGLPQKVAERLDEIFQTGLVAYVDLDERAIDALREFNEEGALSVLQQFKESDLSHVQNKSAFLCGVMKTYRQREKQGSKVQESTKGPDEAKIKALLERTGYTLDVTTGQRKYGGPPPDSVYSGVQPGIGTEVFVGKIPRDLYEDELVPLFEKAGPIWDLRLMMDPLSGQNRGYAFITFCGKEAAQEAVKLCDSYEIRPGKHLGVCISVANNRLFVGSIPKNKTKENILEEFSKVTEGLVDVILYHQPDDKKKNRGFCFLEYEDHKSAAQARRRLMSGKVKVWGNVVTVEWADPVEEPDPEVMAKVKVLFVRNLATTVTEEILEKSFSEFGKLERVKKLKDYAFVHFEDRGAAVKAMDEMNGKEIEGEEIEIVLAKPPDKKRKERQAARQASRSTAYEDYYYHPPPRMPPPIRGRGRGGGRGGYGYPPDYYGYEDYYDDYYGYDYHDYRGGYEDPYYGYDDGYAVRGRGGGRGGRGAPPPPRGRGAPPPRGRAGYSQRGAPLGPPRGSRGGRGGPAQQQRGRGSRGSRGNRGGNVGGKRKADGYNQPDSKRRQTNNQQNWGSQPIAQQPLQQGGDYSGNYGYNNDNQEFYQDTYGQQWK
[…]
  target (unweighted spectral count in RNP capture): 32
  background (unweighted spectral count in control): 1
